{
  "source": "a protein production outcome set (Wang et al. 2014)",
  "data": [
    {"assay": "label from the status in PepcDB records", "values": [
      {"sequence": "MLSSGITKAKGMAVVSEGSVPMDQSVGHLPASLLSLVSDPVPKEKVLLPKALRQTLLEKGCHNVRAHGFDAISTQASACSSVAQAGARHTQPSSRARAQVRGHTGDPLASTVSPDLTPDVYVLRVKLEETGELFRVANCRNDMTVRELKEELDLMVGIPFNLQRLHFLDRGILMDDATLKFYDVIPGALISLCIWHYDGWTELVLAAVEGDPSKMSCLGISEDTFYRTANSQHFKGEQWRQWTAQRAFVALYISAHRGHVDAVQYLLGLGANCLAKSPLGRTPLHVVAAMGRTDCVQPLLEHGASIHDRDLKSDTPITIARRLKRGHLEHKMFLLYWMVKSGSRDPDLVGRKALEKSSPGMATRRSTILIS", "protein production": "failed"},
      {"sequence": "MLSTGLDELVYRSNLIGSDRAVCNWGGGNTSMKTVEKDFRGREIAVMWVKGSGSDLATMGAKNFTGLNLEDIRPLIEREEMSDEEMVEYLGHCMIDRNHPRPSIETLLHAFLPFKHVDHTHPDAIISICCADNGKEIAKNLFGDRFVWVPYVRPGFSLSKLIAEGVQKNPHAELVLMEKHGLVVWGETAKESYDRTISVINEAEAYIRSRINESVIFGGGKLEHHHHHH", "protein production": "failed"},
      {"sequence": "MLSTTTIGFPRIGNQRQLKFAMESYFKGDSGEAELLAVAHKVQSDAWALQKAAGIAVIGLDGTLYDQVLDTITWLGAIPPRFKHLSGLQRYYAMARGGAALDMSKFFDTNYHYLVPELGPDVLGPATAAGAPLQPDFSGPLDKLARGQAVVGRERAVPILIGPVTFVSLSRGCELPLDQAVARLLPTYCALLQQLAAAGAPEVQLHEPVLATSEGAGMRAEFETAYAQMAQAAGSVPLHLVTYYDDLGAAYPWAVQLPVAAVTLDFLGPPGAAVPSQTLALLQQHGFPADKRLGAGVVDGRSVWKDDGTAVALLRALLDTGAVSSDRLVVTSSAPLQHLPYDLGLELEAPKTPEAEPHLPPALAARLGFAKQKVEEIVSVARLAASPAAAAAAAGHGAVVQLQRLQQGKGVEDHTADIPAEWFSRPKPYDVRREQQLQLPAFPTTTIGSFPQTAEVRRLRQQLKSGRLTQAEYEGLIAGHIAHAVGVQEALGIDVLVHGEAERTDMVEYFGMQLGGMLFTRAGWVQSYGSRCVRPPLVVDDITYRGPMTCWEYKVASAYTRKPVKGMLTGPVTILNWSFPRKDISRAAQAMQLGLALRQEVAALEAAGCTIIQVDDPALREGLPLKRERWASYLSWAVDAFRLCTGVAAAGTQVVTHLCYSDFQDILPAIDRMDADVLTIENSRSDNAMMAALAAAGYGRDIGPGVYDVHSPVVPSVEFIKSRIRSFVDSGILSGRYDRIWVNPDCGLKTRGWPETIAALRNMVEAAAQARAELQLAGGAAVAPVAGGVEAAGKGAALGAAAGTSRCVDCCH", "protein production": "not failed"},
      {"sequence": "MLSVFLEIIYERQLRKINLKILTDFINLIKEESLSNGAEFIQVQGGFYFLFKKKSIAYAFSTARFLYNVNKILISYKNKISEVRCITDYYEEDVSNEALFESLSLYKKQLIPEMGMFASREAANKLSKYIDFNETDSSILLCNAFKFFENINLTSNKNADKNASIILHRNDNYFWSIYNFILANPLDNDSLKAMSNEDRISFLATKNVYIYLKKHRFSKDMPQYFIDAFLTNAAIYLKNYIKKQNGRRSVKVLIDNLNDKKNLDEAEKIYAVNKYMEIEALDSSLPSIYNIPDDLLQLIYIILVSSKYFFYDEITDFLVSLNKSKAFFDDVYAWMYSMGIILVENNIYAVPYGLPEIIERRINLSKNMVDSNITEYLWAKYKKGILNANSDAEKIFDSLNFKCKPDFLLASIFHNYSDSSIEGLDLKKYKNEIFYDALKYYQNSIIANIDDSTAKSYAYLKTAIGFFQENKLESGEYRAFSLLAFFNLMQNKISDAITYFSYALDNAEHSHDTSFICDALFNISIVYFLQNNLKQSITFLDRLAAAVDEYFEQDWKIPYLFMKGRVYLQIGEFNKAADSFRMASDFADLYFDKIEPLCKSWYGRSLIYMGQIKNGQEILIKYIDYTDDALLFLLESFLFYPVLNNDFEKMDLDISSIYSAYNNSGLTDFINLKSGFSIAEDLIWSNIYDMSIGKKMFDAFYNYYNCKINFSKMYDIEECKILLSNLEASAVESLYQNDPYSSLYMYLCYDLSVKLYGENSSQTIAYLSKAFKSMQKNVLAIGENDIRDKYMQNNLWNSKLFKVAKNQKLI", "protein production": "failed"},
      {"sequence": "MLSYDIEVLKIINDEDNISQRRLAEMLNISLGKINSLLKELLTKEYIVKIDIDKRNVKYELTEAGIALLENSLDKVKSTKLSIHKHKFHKVKQAVILGAGGKGDFGKPAGFLELEEFRIIDRIIDILKSNGIEKIVIVNGYKKEYYEELAEKDSTIFCVTNSNYKWTGTMSSLALAKEYIDDDFILVENDLVFESRAVEQIIKNDNRDCVLITNESGSGDEAFVEIRDGYLFKMSKDVHQFNKIDGEMIGISKISYKLFKMMLEEFKHNINPYMNYEYTMLDVARNYKVGYEKINDLVWGEIDNKDQYEKVKKHIIPMIRRKEMQYKIDQVKSAIVNGLKVSEEEVKEIVPVGGMTNKNYKAFVNDKAYIVRIPGLGTSSMINRRDEMINSKLAADEGIDAKILFFDEESGVKIAELIEGAETLNPATAKKKENMELVVGALRTLHNSEIKMENRFNVFEKIEDYESLVKKVSGTLFEDYYEIKTRVLKLEKVLEDNGMEIKPCHNDTVPENFVKDINERMYLIDWEYSGLNDPMWDLAAHSIECDFSEDDEELFLNLYFNNLIEDKHKIRILVYKICQDFLWSIWTILKEAQGDDFGTYGIDRYNRGKKNLELLDKILMGQ", "protein production": "failed"},
      {"sequence": "MLSYDLNERLLTAVQSGDFEQALGCIMQGAQASYVSPTCGRTAVGTAAILGDAELLELLLQSCEEPELNVFHQSNTDSLEIERTPEGMEKLEWVDEFENSAENGAGSGEEDSQLYQYYAKTFETTGEFISSQCCVSCREHDPHLYDADVATPLHYAAYWGHEECVRILLEHNAPINVLNNDGYAPLHLGAGFAGVTELLIKHGALVNAKTLSDGKTALHMAIESKCAESARLLLQTNININDTDDDGETPLMAAIACSMLDVAEELVKRGARINIQDKQNHTALQYAVRGRHTQMAKLLLERGARRLASQHLLHLAVESNVKELVELLLQYGESLSVWNLKNFTPIMLAIHRGRHEMLEYLLNVAEEQRKLGLYSDVHDEGLVLFAVQQNFWVKEFSRILRVLLAKSPSARNDFYDSCAPTIVCGLIYCHTPLSRAINLHRLEVAEFLIHEGCNLAQICREHVVNELRSNCTPTRLAFARLLCNAGFQFPHKHRPLPKDWPPARLEFEREMCLLGTQPRSLQSLARLEIRRSLLRCLQTRPEVQERYLPTQERSSLGRIVDEFAIPATLKRYLSDFDELPPVRGMEPVDIPVVKWTESWD", "protein production": "failed"},
      {"sequence": "MLSYKHSNATLPILWGEAKRGDFDDLDKAFTQLLLTIGKHRLYTHHTPPYLCAFNAFKMEFIAFDDTITSFFYKSDIDFSITPSNHNTEGFKHALDAFKAMSKSHKFVFDFKTQSQECKEFIKNRLNSSHLLSKIQIDKNNFFTIYQKWLEIVKPTIDINWEVAKTKDILDADYYLADLLSDGDKTIIEKLHTILRSSHYKLNRGVNELGKMDFMEVGFTDSQQAHQEFWSVYERPPKREFQASILERRDLLVPSDVRERKGAFFTPKIWVEKSQEYLAKALGQDYQEDCIIWDCAGGTGNLLRGLLNKANLYLSTLDHNDVAIVKDLAAKNHLKLLENHVFQFDFLNDDFFSDKTPKSLQEILKDKEKRKKLIIYINPPYAEAGNKSKMSGTGEHKAKVARDNLICEKYKNELGKANNEVFAQFFMRIYKELNGVILASFSTLKNLQGSNFKKFREIFKAKFLEGFMVPADTFDNVRGQFPIGFLVWDTSSILPKENPLNLGGNSKEEKQNSNLILDQDNLKDNPLKERFCLLDINAPNRKMCSQSRTRTKGTQKHSTAAPFETPLHTVSLEIFDSFGGFLGSKKIYTHTIDKMLTLADYLQKFQPTKRDTIFGYLDPGRNSFQHQNLIHISIIDKSKQSHVKYFPIIATTILLVSVFFSIRHCIKATWQNDRDQFYAPYDDAFQDDSEFKNNCLIFMLFHTQNRITTAQGTNHFIPFSETEVNAKERYSSHALLEFLKGEIKELKENDSLFLSAKKENKPLKFSPSASKVFDASREVYRYYHTQDFTNRPYNANASLYDIKEFFQGRNKQGKLNLPAKAKDEYYKQLYANLQDALKDLAKEIQPKVYEYGFLRE", "protein production": "failed"},
      {"sequence": "MLTDRELLILEEIVREYTENGQPIGSKTLMNNLPVKVSSATIRNDMAKLEEMGLIEKMHSSSGRIPSLMGYRYYVDHLLSPKKLNQSEAQQIQKGLGMHFREVDDIVRTSAEMLSNLTHYTALTLKPDQKDATLDGFRMVPLGGNQVMLILVSSNGDVTSQQFSIPRGMNSETVERVLRIMNDRLIGETLDQVYYHLKTDIPKIVEHYLHSNDGIIDIFENVVAQSSQDRYFIGGKLNILNFSKNVDVSSIRGLLTLFNENDQLDGLLGNNQSDLDVKIGDELSNALLKDFSLITATYDVGSRGKGLIAILGPTSMQYSKTLGLLDTFRDQLSNRMLEYYKHLDDS", "protein production": "failed"},
      {"sequence": "MLTENYNKQAIAQAFGRAAGCYDRFAELQRTSGERLLALMPAHSGLQVLDAGCGTGHFSRYWRQAGRNVTALDLSAEMLAYAREQHAADRYLEGDIENLPLADSCVDICYSNLAVQWCDSLPRALGELYRITRPGGVIAFATLADGSLSELSQAWQRLDGTQRTNRFLPHSVIDAACQPYRHHLLQEREVCLFPDVLALMKSLKGIGATWLHEGRTPGLLSRARLAALSACYPQEQGGYPLSYQLVYGVIYRDLEHHHHHH", "protein production": "failed"},
      {"sequence": "MLTGIGAIVFDLDGTLYQSESLGGQIAACADRYLADLLSVSPEEAGEIVRRVRRELTARFGREASLSDACRELGGDLRELHRRFAAEVAPEPHLRRDSRVVQLLRTLGANRELYLYTNNNRALSGRIMDAIGVTGLFRRVVTIEDSWRPKPDLQALEALFAALGRKPSECLFVGDRYDIDLRLPAELGCSVYLSRTVDELLGLTLPLSEEQQ", "protein production": "failed"},
      {"sequence": "MLTIREIQSLVHKGEPGQWSHTKALYFFIAPSGRPFWAIRYMLKGRRRQMSLTDSIPATVRELKQIELLSETEREKVRKGIDPLAEREAAKAASPEPVRQLVTFKSVALDYIAANRGGWKNAKHVQQWENTLATYVYPVIGHLEPQSITTAEVLKILQPLWATKRETASRVRSRVETIIGAAKAKGMSEKPEIWANHHNPARWADNLEFWLNGKQEKNHFSAMPYPEIPAFAQSIAEREDYSTKALQFLILTATRTNETLGAEWSEIDTEKAVWTIPASRMKSGKEHRVPLSSEALKLVASLLRIEGNPYLFPGAIRNKSLSNMALLMVMRGLKLGHYVPHGFRSAFRDWAAEETVYPNHIVEMALAHTIKNKVEAAYRRGDLMEKRRQLMEDWSAYLASAR", "protein production": "failed"},
      {"sequence": "MLTKFKSLPKAVYAILALSFLLHVFCLVKQPGLDGELVKVTYGANDAFNYSLTAEQLLKHGVFGYVYLEPSEVPGKNAYITPGQPLLLAGAMIISDITSIPYYYVATVINMIMNLCTVLLVFLIGKELFEKNIYGIVASILYAIYPSNYTYFRTLLTEVPSIFLLALCVYVFVLAWKYNKVKFHIWFGIVVSILLMFRPNPAPMMLIPVLVVLFTYGFKDSIRIGLLWFIGPFFIIGAWVVRNYLALNQFILFSTQGADPLIAGADPFNKIGYENIVNEMRAKGLDDKGAYAKELIKNGFKTDFTYWFSWFTVGKTIELFKTAPAVDQYRIHNFMQLCHRVFIIGTFLSSFCFMLNSFKHKRVMMLVASSIIYIIFSNLFLAINRYGFFINPLMCLILAYGLIHIVQKLPFFRTNQA", "protein production": "failed"},
      {"sequence": "MLTNPTYGLTLHAQGPVPAEVFPLPTPPRSSRVPASTNRGGPPPQRGGPRPSGRPPRPPVRRKKPRWAMRAVTALSVVVLASAGIGHAVLSSLDSDISRFDAFKDMKNRPRAGDGMNVLMVGTDGRDEITEEERRKYRLGGAPCHCTDTIMIVHISEDRERASVVSLPRDSYAETPGHTDRTTGEHHKGHPIKLNAAYAEGGPQLTIRTVENMTRVKIDHYLEVDFTSFMKTVDVLGGVRICTVQPLKDSYTGLDLPAGSHTLMGGQALQYVRARHLDGASDLSRMKRQQRFLAALIDRATSSGILLNPLKFRDVTRAVLGSVRADQGFGTDELLTLGRAMRNFSPSSSEFTTVPIGQMGYAVKGVGSTLKWDPAKSERLFDALREDEPLAAPKPKGPAPVRVPVDPKQIRVQVENGTRTSGLGKRVDDALAATGFRTTRAPRNAEDRAVGRTVVAYDPRWDQSAKSLAAALPGSELKPVKGQGATLKVIAGADFEKVAKVRPADPPQESGTVVRGDEVVCGKE", "protein production": "failed"}
    ]}
  ]
}
